Experimental data as given in patent publication US20160052997A1 (CELLTRION, published 2016).
Several values for one entry are separate records, joined by “and”; a condition that tells them apart may be missing. Equal entries are not always repeated. Where two headings read alike, the source gives them in different places.

What was measured:
[1] = biological target: T1, purified recombinant HA protein of H1N1 (A/California/04/09) (Influenza A virus A/California/04/09 …, UniProt P26140 18-529); experiment: SPR, Biacore T200, HA captured via anti-6x his tag antibody, 25 C
[2] = biological target: T1, purified recombinant HA protein of H1N1 …

B1: CT149 (antibody, V domains shown)
VH: QVQLVQSGAEVKKPGASVKVSCKTSGYSFSTYGVSWVRQAPGQGPEWVGWISAYTGITDYAQKFQGRVTLTTDATTATAFLDLRSLRPDDTATYFCARDKVQGRVEVGSGGRHDYWGQGTLVIVSS
VL: EVVLTQSPGTLALPPGERATLSCRASHRVGSTYIAWYQQKSGQAPRRLIYGASNRATDIPDRFSGSGSGTDFTLTIRRLEPEDSAVYYCQQFSVSPWTFGQGTRVEIKR
B1 was tested. Which Kd [1] did it give?
Its Kd is 30.2 nM and 31 nM.

What about the koff [1] of the same binder?
The koff was 0.0388 s⁻¹ and 0.0399 s⁻¹.

What about the kon [1] of the same binder?
Its kon is 1.29e+06 M⁻¹ s⁻¹.

What about the Kd [2] of the same binder?
The Kd was 30.6 nM.
